# Laboratory results taken from the supplement of paper PMC9732359.
# ± gives the uncertainty stated by the source.
# Assay: protein stability index of a GFP-peptide fusion (yeast GPS) (PSI 1-4); higher = more stable; sorted into four equal gates, so the index is relative within each strain
# Conditions: ubr1∆
# Method in brief: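 The protein stability index combines read frequencies across sorting gates, each weighted by its gate number and then summed. To obtain those frequencies, a pooled yeast library of GFP fusions to tiled 17-residue yeast protein peptides, on a plasmid also expressing Cherry, was grown to mid-log phase in leucine-free medium. The cells were sorted into four equal gates by GFP/Cherry ratio before plasmid amplification by PCR and Illumina sequencing.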
row,Sequence,protein stability index
1,NESLIPLINLALIDTEF [YML103C/NUP188],2.1 ± 0.12
2,NESSLALEFVSLLLSSV [SRB4],1.6 ± 0.05
3,NESSTFLKLVLSESPVD [SIN4],2.02 ± 0.046
4,NETNDKKRNPSKQNGSK [PRP28],3.23 ± 0.039
5,NFEKPKNSSQLLNEWSH [RPN5],3.12 ± 0.087
6,NFESISARSSVHESLVT [SRB8],2.26 ± 0.027
7,NFIIWINSIDTTESSDL [GRR1],2.88 ± 0.037
8,NFKKFNERRKDLAERAS [SMC3],2.05 ± 0.097
9,NFKMLVLLATWNLEKWR [IRR1],1.56 ± 0.038
10,NFLDNCLFENDLQRLKP [ITC1],3.06 ± 0.034
11,NFNKFFKIWHGEINKIC [PCI8],1.14 ± 0.059
12,NFNPDNGFAPISEVMED [FAS1],3.17 ± 0.033
13,NGAGGLMYATDWQMMTS [CSL4],2.99 ± 0.09
14,NGCIFTLNPKTGHLFLK [PRP8],2.97 ± 0.083
15,NGDEGDDENEPKRKRRL [YOR098C/NUP1],3.06 ± 0.071
16,NGDKMPLKFKLGPLSYQ [YJR042W/NUP85],3.27 ± 0.12
17,NGGKFSKSNLIHNYDSK [RGR1],2.7 ± 0.064
18,NGGLIHVVTREKGPQVC [RPO21],2.96 ± 0.12
19,NGLGTSHINTNVGDNNS [ARP7],3.28 ± 0.11
20,NGTVNNNSALSNVNSDI [RPT3],2.15 ± 0.051
21,NHVMYTEVSRKSMKYVK [ECM29],2.23 ± 0.039
22,NIAFDAHMSIGCLHKGK [YML031W/NDC1],2.27 ± 0.086
23,NIERKQTRKEYNTSILE [SIN4],3.23 ± 0.082
24,NIFKAEMDSVSKSMKFS [CSN9],2.85 ± 0.044
25,NIIQAKRDAKAAGSYYV [RPL7A],2.64 ± 0.087
26,NIKFLSKLEGTINKAVQ [ESC2],2.91 ± 0.1

row,Sequence,protein stability index
1,NIKPVEQHHINNLKNSG [GAL11],2.47 ± 0.041
2,NIMVTIDGCVKIGDLGL [SSN3],3.43 ± 0.052
3,NISHLLEIASSIDCLLI [SWI1],2.04 ± 0.035
4,NISISTSELGNDDFSEV [BRR2],3.12 ± 0.077
5,NISNAKLANFFSKKGNE [YAR002W/NUP60],2.33 ± 0.079
6,NIVKLCFVHRYKDVSDL [IRR1],2.89 ± 0.058
7,NIVSDAGANDTSNNETN [GRR1],2.71 ± 0.099
8,NKAQAKMDKRAKNSDSA [RPL8A],3.54 ± 0.067
9,NKAQAKMDKRAKTSDSA [RPL8B],3.31 ± 0.071
10,NKASLAQYEVLANYLTS [QCR2],2.64 ± 0.081
11,NKGWKLQSLNESKDLLR [SRB4],2.93 ± 0.15
12,NKIIPNVGLCITIYDLL [RPC25],1.5 ± 0.067
13,NKKIYQWNKLTSFDIKR [POP6],3.03 ± 0.083
14,NKKLIKKLSKKYNAFIA [RPL1A],1.88 ± 0.049
15,NKLGALKTNFETEWNLQ [RPB11],2.95 ± 0.091
16,NKNGNAVCSTATVVSTN [PGD1],2.81 ± 0.053
17,NKTNNEDLFDDYPSTSL [NUT1],1.79 ± 0.061
18,NKYQIKKAVKELYEVDV [RPL25],3.21 ± 0.06
19,NLKYLDNSNVMTVKLES [RGR1],2.66 ± 0.12
20,NLLKFITSNHKSSVPGS [RPN3],2.41 ± 0.087
21,NLMILNTKVPVDIVNQW [YML103C/NUP188],2.08 ± 0.055
22,NLQREIDQAHVSEITKL [RPN14],2.69 ± 0.05
23,NLQTADTVIIFDTDWNP [SNF2],2.34 ± 0.064
24,NLQVELLSEHDDHNGEV [YGL100W/SEH1],3.37 ± 0.055
25,NLRLKILTIIEEYKKSL [GRR1],1.61 ± 0.07
26,NLSVTSPYNADFDGDEM [RPO21],3.04 ± 0.042

row,Sequence,protein stability index
1,NLTDEGYQWGEENKDIM [PRP8],3.2 ± 0.23
2,NLTRGINLRKVAEKMNG [RPT6],1.28 ± 0.044
3,NMLLDPAANESEVANNG [RRP42],2.34 ± 0.042
4,NMPNCDYLTLNKVVVNL [RPN2],3.02 ± 0.051
5,NNANVLGGEINDNEDDD [BRR2],2.98 ± 0.061
6,NNAVRFSKQCLISNAIY [ECM29],1.08 ± 0.094
7,NNCEDFVSRPDRTMLAP [FAS1],3.2 ± 0.11
8,NNDDDDNSVEQGRRLGE [MCD1],3.37 ± 0.12
9,NNDFKLSIDKVLKKPNR [RET1],2.94 ± 0.13
10,NNDGSYGLFLKYHKEQF [SRB8],1.82 ± 0.069
11,NNESNKNNNGDEKNKNN [MED2],3.31 ± 0.051
12,NNGSKDHGDGILLIDSE [RPN9],3.41 ± 0.21
13,NNIDQSLILKESGSTPI [YAR002W/NUP60],1.61 ± 0.064
14,NNIRQAICRYANVIKAL [RRP4],1.43 ± 0.14
15,NNKFANKIIPNVGLCIT [RPC25],3 ± 0.081
16,NNLEPRQTTSNTGLLNK [RPN11],3.32 ± 0.046
17,NNLKNSGNSANNMNVNM [GAL11],3.02 ± 0.039
18,NNLSNQLETLTGSIRHR [CSE2],3.13 ± 0.059
19,NNNNSTRPQMPSRTRET [GRR1],3.033 ± 0.021
20,NNQQRLLLKKLDNFQKS [SMC3],2.45 ± 0.043
21,NNTKAGRRKTWKRQNTL [RPL15A],2.87 ± 0.12
22,NNTNNANSSITPAFGSN [YJL041W/NSP1],3.06 ± 0.12
23,NNTTTTSTKPSFSFGAP [YOR098C/NUP1],3.01 ± 0.076
24,NNVDNKYKSGGKFSFSP [SSN2],2.17 ± 0.038
25,NPLADAEEALEPSYIFE [PRE4],3.12 ± 0.06
26,NPNPSSQRAQVVTMSVK [RPC37],2.42 ± 0.075

row,Sequence,protein stability index
1,NPSITRLEEESSWQIYS [RRP4],2.07 ± 0.097
2,NQIADLSGKFSTIPTRE [ROX3],3.23 ± 0.07
3,NQIQRQQQQQFRHHVQI [SNF5],1.91 ± 0.03
4,NQKIPDNVIVINHKINN [SIR3],2.14 ± 0.041
5,NQNQRNVNETMSRSLAN [SMC3],2.86 ± 0.077
6,NQQPQQQQQQQQNPKFL [SWI1],2.9 ± 0.029
7,NQQQPPQDILSKLYLLL [SNF11],2.54 ± 0.045
8,NQSAYEWNGKSFQKKSN [ISW2],2.99 ± 0.13
9,NRYAYVLSSLMFANMKV [LRP1],3.01 ± 0.047
10,NSDDFFMDNSYDIDEID [ESC2],2.31 ± 0.051
11,NSEKYYDEDPYGFEDES [RPB2],3.25 ± 0.13
12,NSGIIPGNRNADNVDKI [FAS2],3.04 ± 0.05
13,NSIDVPIRINSTEEIEY [YMR129W/POM152],2.6 ± 0.034
14,NSILSVRDPWSIDFRTY [SRB2],2.98 ± 0.1
15,NSKMPTRFPPAVFYTPK [PRP8],2.93 ± 0.061
16,NSMDMVDGMAKVPIGLI [RGR1],3.23 ± 0.073
17,NSNDSVFVGSGKGTGKT [BRR2],3.33 ± 0.11
18,NSNGIAMASLYLTGGQQ [SMD1],2.59 ± 0.059
19,NSPSKGNSERPSAVAGF [YIL149C/MLP2],3.16 ± 0.11
20,NSPSSALRALQENGTIF [YDL088C/ASM4],2.01 ± 0.039
21,NSSSSTPNTNSNSTPNA [SWI1],3.21 ± 0.059
22,NSTDGAKITEIGSTSKR [YIL149C/MLP2],3.18 ± 0.062
23,NTHYHADYRLILTGTPL [SNF2],1.75 ± 0.076
24,NTKEIAVDLEHHDYRSY [RRP6],3.054 ± 0.03
25,NTLIPESSLTISLYFND [ECM29],2.42 ± 0.043
26,NTLLVTGPFKVNGVPLR [RPL6B],2.74 ± 0.045
